# Test results: paper doi:10.1101/2020.09.13.295485
# Molecular target: His-GB1-tagged C-domain of CRT_(Del52) (human) (UniProt P27797)
# Assay: non-reducing SDS-PAGE with immunoblot
substance,measurement,value
His-GB1-tagged C-domain of CRT_(Del52) (from UniProt P27797 357-366) (domain or fragment),stoichiometry N,2
